{"source": "patent US9624471B2", "about": "“Methods for maturing cardiomyocytes and uses thereof” (UNIVERSITY OF WASHINGTON THROUGH ITS CENTER FOR …, priority 2013, dated 2017)", "molecules": {"B1": {"name": "let-7i: human let-7 family miRNA, SEQ ID NO: 10, overexpressed from pLKO lentiviral pri-miR-let-7i construct (nucleic acid, listed as Homo sapiens)", "chain": "CUGGCUGAGGUAGUAGUUUGUGCUGUUGGUCGGGUUGUGACAUUGCCCGCUGUGGAGAUAACUGCGCAAGCUACUGCCUUGCUA"}, "B2": {"name": "let-7g: human let-7 family miRNA, SEQ ID NO: 9, overexpressed from pLKO lentiviral pri-miR-let-7g construct (nucleic acid, listed as Homo sapiens)", "chain": "AGGCUGAGGUAGUAGUUUGUACAGUUUGAGGGUCUAUGAUACCACCCGGUACAGGAGAUAACUGUACAGGCCACUGCCUUGCCA"}}, "key": {"[1]": {"tested_on": "let-7 OE CMs", "assay": "Mitochondrial DNA copy number by qPCR (mtCol normalized to GAPDH)", "type": "cell-based, human", "settings": "let-7 OE vs. EV control", "description": "FIGS. 5A-5G Let-7 over expression results in down-regulation of PI3/AKT/Insulin pathway and up-regulation of FA metabolism. Comparisons were done between let-7OE and EV control for all assays (FIG. 5A) Density plots using R generated with fold change expression (let-7g OE/EV) of genes for FA metabolism and PI3/AKT/Insulin signaling. (FIG. 5B) qPCR analysis of candidate let-7 targets of the insulin pathway and genes from the FA metabolism. (FIG. 5C) Representative OCR profile in response to ATP synthase inhibitor oligomycin, uncoupler of electron transport and oxidative phosphorylation, FCCP and electron transport chain blockers rotenone and antimycin during mito-stress assay. (FIG. 5D) Quantification of maximal respiration capacity, i.e., changes in response to FCCP treatment after inhibition of ATP synthase by oligomycin. n=24 from 3 biological replicates. (FIG. 5E) mitochondrial DNA copy number was determined by measuring the ratio of MtDNA to genomic DNA using primers specific for mitochondrial DNA gene, Col (mtCol) and normalizing to chromosomal gene GAPDH. (FIG. 5F) Representative OCR trace of let-7g OE cardiomyocytes for fatty acid stress measuring Etomixir (ETO) responsive OCR changes after palmitate addition. (FIG. 5G) Quantification of changes in OCR in response to ETO. n=32 from 3 biological replicates. […]"}, "[2]": {"tested_on": "cardiomyocytes (let-7 OE CMs vs. EV control)", "assay": "SEAHORSE XF96 metabolic flux assay (MITOSTRESS, palmitate, glucose stress)", "type": "cell-based, human", "settings": "compared to EV control; for OCR changes after FCCP treatment (maximal respiration capacity): after oligomycin", "description": "To understand the molecular signaling components of maturation program that are modulated in let-7g OE CMs, the inventors probed the differential expression data further using density plots for each of the 12 pathways previously identified (FIG. 4F). […] The inverse relationship between FA metabolism and PI3/AKT/insulin signaling in let-7g OE CMs was similar to that observed in the 1 yr old CMs and consistent with the metabolic switch seen in maturing CMs in in vivo studies. The inventors validated by qPCR in the let-7 OE CMs the down-regulation of candidate let-7 targets in the insulin pathway and up-regulation of candidates of FA metabolism (FIG. 5B). To test the functional relevance for these gene expression changes, the inventors carried out metabolic analysis of let-7 OE CMs vs. EV control using the SEA HORSE™ metabolic flux assay. First, mitochondrial maximal respiration capacity was analyzed by measuring the oxygen consumption rate (OCR), a metabolic parameter representing the mitochondrial respiration levels. To record the maximum activity of the electron transport chain uncoupled from ATP synthesis, mitochondrial ATP synthase was inhibited with oligomycin, then maximum mitochondrial respiration was measured after addition of the proton gradient discharger, carbonyl cyanide 4-(trifluoromethoxy)phenylhydrazone (FCCP). […] Increased mitochondrial respiration can be due to increased mitochondrial copy number or increased mitochondrial activity, for example due to higher efficiency of glucose or fatty acid usage as energy substrates. […] To investigate whether the let-7 OE CMs also utilize glucose more efficiently, the extracellular acidification rate (ECAR) was determined. […] These experiments clearly indicate that let-7 OE specifically increases the efficiency of palmitate usage, which is an important sign of maturation.\nThe SEAHORSE™ XF96 extracellular flux analyzer was used to assess mitochondrial function. The plates were pre-treated with 0.1% Gelatin. At around 20 days after differentiation, the cardiomyocytes (both empty vector control and let-7 OE) were seeded onto the plates with a density of 30,000 cells per XF96 well (2,500/mm^2) to ensure about 90% surface coverage at the time of experiment. The SEAHORSE™ assays were carried out 3 days after the seeding onto the XF96 well plate. […] The OCR values were further normalized to the number of cells present in each well, quantified by the Hoechst staining (Hoechst 33342; SIGMA-ALDRICH™) as measured using fluorescence at 355 nm excitation and 460 nm emission. […] Cellular capacity to utilize Palmitate as an energy source was calculated as the OCR reduction after ETO addition. […]"}, "[3]": {"tested_on": "IMR90 iPSC-CMs", "assay": "let-7 over-expression in IMR90 iPSC derived cardiomyocytes, qPCR", "type": "cell-based", "settings": "for let-7 over expression relative to empty vector (EV) control: pLKO-lentiviral OE for up to 2 weeks; for cardiomyocyte maturation markers expression / let-7 targets (lin28 and HMGA2) expression: qPCR", "description": "FIGS. 19A-19B show let-7 over-expression (OE) in IMR90 iPSC derived cardiomyocytes (IMR90 iPSC-CMs). A pLKO-lentiviral based system was used to overexpress let-7g and let-7i in IMR90-iPSC-CMs for up to 2 weeks. […] Experiments were validated with 3 biological and 3 technical replicates. FIG. 19B qPCR validated the down-regulation of let-7 targets (lin28 and HMGA2) and upregulation of cardiomyocyte maturation markers in let-7i OE and let-7g OE CMs.\nTotal RNAs were extracted with miRNeasy™ mini kit (QIAGEN™) or using TRIZOL™ (INVITROGEN™). RNA was DNAse treated with DNA-free kit (AMBION™). miR-let-7g and mir-let-7i taqman assays (APPLIED BIOSYSTEMS) were used for miRNAqPCRs following the manufacturer's protocol using RNU66 snoRNA as a loading control. For mRNA qPCR, reverse transcription reaction was carried out using Omniscript™ RT kit (QIAGEN™). Primers for CTNT, MYH7, RYR2, SERCA2 and GJA1 were based on Tulloch et a1^2. Primers for HCN4, KCNJ2, SCN5A, HMGA1, HMGA2, IRS2, INSR, LIN28, SLC27A6 and FABP2, CD36, PPARA, TRIM71, EGR1, CDKN1A were purchased from Real Time Primers. qPCR was performed using SYBR green chemistry and ABI 7300 Real time PCR system. Samples were normalized using GAPDH as a house keeping gene."}, "[4]": {"tested_on": "HECT293FT cells", "assay": "Lipofectamine transient transfection of plko-let-7g and plko-let-7g-E plasmids, mature let-7g and target expression after 24 hrs", "type": "cell-based", "settings": "24 hrs after transfection", "description": "FIGS. 20A-20B Modified let-7g (let-7g-E) is more efficient in generating mature let-7g in HECT293FT cells. Let-7g and a modified version of let-7g (plko-let-7g-E) were induced in hect 293 FT cells by introducing plko-let-7g and plko-let-7g-E plasmids with lipofectamine transient transfection assay. 24 hrs after transfection, cells were tested for mature let-7g expression. […] (FIG. 20B) Targets of let-7 are repressed when we over-express let-7g-E similar to that seen during over-expression of let-7g."}}}
{"molecule": "B1", "values": [{"measurement": "mitochondrial genome copy number", "setting": "[1]", "value": "without affecting"}, {"measurement": "OCR changes after FCCP treatment (maximal respiration capacity)", "setting": "[2]", "value": "significantly greater"}, {"measurement": "OCR increase in response to palmitate (fatty acid stress test)", "setting": "[2]", "value": "greater"}, {"measurement": "let-7 over expression relative to empty vector (EV) control", "setting": "[3]", "value": "up to 8 fold"}, {"measurement": "cardiomyocyte maturation markers expression", "setting": "[3]", "value": "upregulation"}, {"measurement": "let-7 targets (lin28 and HMGA2) expression", "setting": "[3]", "value": "down-regulation"}]}
{"molecule": "B2", "values": [{"measurement": "mitochondrial genome copy number", "setting": "[1]", "value": "without affecting"}, {"measurement": "Targets of let-7 expression", "setting": "[4]", "value": "repressed"}, {"measurement": "OCR changes after FCCP treatment (maximal respiration capacity)", "setting": "[2]", "value": "significantly greater"}, {"measurement": "OCR increase in response to palmitate (fatty acid stress test)", "setting": "[2]", "value": "greater"}, {"measurement": "let-7 over expression relative to empty vector (EV) control", "setting": "[3]", "value": "≤ 10", "unit": "fold"}, {"measurement": "cardiomyocyte maturation markers expression", "setting": "[3]", "value": "upregulation"}, {"measurement": "let-7 targets (lin28 and HMGA2) expression", "setting": "[3]", "value": "down-regulation"}]}
